Values quoted from earlier work as cited in PMC10935306.

Target: Ship2 Sam (Homo sapiens) (UniProt O15357)
Chain of UniProt O15357 (O15357 1193-1258): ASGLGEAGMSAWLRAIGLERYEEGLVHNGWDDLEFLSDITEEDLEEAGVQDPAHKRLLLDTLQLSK

EphA2 Sam (from UniProt P29317)
Kd: 750 nM
